Columns and labels:
[1] = target: GST-LSD1 (UniProt O60341)
[2] = target: GST-LSD1 K114A (UniProt O60341)

## GST-G9A aa786-1210
[1]
  methylation at K114 in vitro (methylation assay, Western blot with anti-LSD1 K114me2): GST-LSD1 but not GST-LSD1 K114A is methylated at K114 by G9A in the presence of SAM
[2]
  methylation at K114 in vitro (methylation assay, Western blot with anti-LSD1 K114me2): GST-LSD1 but not GST-LSD1 K114A is methylated at K114 by G9A in the presence of SAM
